Measured values: PMC4752584, “The C repressor of the P2 bacteriophage” (Journal of Biomolecular Nmr, 2015)

Target: the molecule itself
Experiment: NMR solution structure; 13C,15N-labelled P2 C at 6 mg/ml in 10 mM Na-phosphate pH 7.0, 150 mM NaCl, 10 % D2O; 13C- and 15N-NOESY-HSQC, 150 ms mixing time, 310 K, 900 MHz; CYANA2.1; homodimer interface found with aid from the crystal structure 2XCJ

B1: C-repressor of bacteriophage P2 (natural protein)
chain: MSNTISEKIVLMRKSEYLSRQQLADLTGVPYGTLSYYESGRSTPPTDVMMNILQTPQFTKYTLWFMTNQIAPEFGQIAPALAHFGQNETTSPHSGQKTG
notes: C repressor of bacteriophage P2, a 99 amino acid protein; wildtype; signals of residues up to 99 are reported; Uniformly 13C,15N labelled for the structure (grown in M9 with 13C-glucose and 15N-NH4Cl); No tag is mentioned; also called P2 C; P2C; source: E. coli BL21(DE3) with plasmid pEE679, purified (DEAE flow-through, HiTrap Heparin, Superdex 200)
binding result: binds
